Measured values: patent US20050090429 (published 2005)

B1: PTR 1007A-01 (peptide)
chain: XFWWKTFG
modifications: X = Dab; 5- and 6-carboxyfluorescein conjugate; backbone cyclic (Dab* to GlyC3*); D-Trp4; C-terminal GlyC3, amide
B2: YS-1-86 (peptide)
chain: FCFWWKTFG
modifications: not fully specified; PTR 3207 core; 5-(aminothionyl)fluorescein-GABA conjugate; cyclic Cys* to GlyS2*; D-Phe1, D-Trp; C-terminal amide
B3: YS-1-70 (peptide)
chain: FGFWWKTFG
modifications: not fully specified; PTR 3219 core; 5-(aminothionyl)fluorescein-aminopentanoyl conjugate; cyclic GlyS2* to GlyS2*; D-Phe1, D-Trp; C-terminal amide
B4: YS-1-68 (peptide)
chain: FGFWWKTFG
modifications: not fully specified; PTR 3219 core; 5- and 6-carboxyfluorescein-GABA conjugate; cyclic GlyS2* to GlyS2*; D-Phe1, D-Trp; C-terminal amide
B5: PTR 1017A-01 (peptide)
chain: KXFWWKTFG
modifications: not fully specified; 5- and 6-carboxyfluorescein-Lys; X = GABA; backbone cyclic (GABA* to GlyC3*); D-Trp; C-terminal amide
B6: YS-1-62 (peptide)
chain: FGFWWKTFG
modifications: not fully specified; PTR 3219 core; 5-(aminothionyl)fluorescein-betaAla conjugate; cyclic GlyS2* to GlyS2*; D-Phe1, D-Trp; C-terminal amide
B7: YS-1-64 (peptide)
chain: FGFWWKTFG
modifications: not fully specified; PTR 3219 core; 5- and 6-carboxyfluorescein-betaAla conjugate; cyclic GlyS2* to GlyS2*; D-Phe1, D-Trp; C-terminal amide
B8: YS-1-48 (peptide)
chain: GFWWKTFG
modifications: not fully specified; PTR 3213 core; 5- and 6-carboxyfluorescein-GABA conjugate; cyclic GlyS2* to GlyS2*; D-Trp; C-terminal amide
B9: YS-1-54 (peptide)
chain: GFWWKTFG
modifications: not fully specified; PTR 3213 core; fluorescein thiourea, no linker; cyclic GlyS2* to GlyS2*; D-Trp; C-terminal amide
B10: YS-1-44 (peptide)
chain: GFWWKTFG
modifications: not fully specified; PTR 3213 core; fluorescein amide, betaAla linker; cyclic GlyS2* to GlyS2*; D-Trp; C-terminal amide
B11: YS-1-29 (peptide)
chain: XFWWKTFG
modifications: not fully specified; PTR 3173-NH2 core; X = GABA; fluorescein amide, aminopentanoic linker; backbone cyclic; D-Trp; C-terminal amide
B12: YS-1-76 (peptide)
chain: FGFWWKTFG
modifications: not fully specified; PTR 3219 core; fluorescein amide, aminohexanoic linker; cyclic GlyS2* to GlyS2*; D-Phe1, D-Trp; C-terminal amide
B13: YS-1-52 (peptide)
chain: GFWWKTFG
modifications: not fully specified; PTR 3213 core; fluorescein amide, aminopentanoic linker; cyclic GlyS2* to GlyS2*; D-Trp; C-terminal amide
B14: YS-1-58 (peptide)
chain: FGFWWKTFG
modifications: not fully specified; PTR 3219 core; fluorescein thiourea, Gly linker; cyclic GlyS2* to GlyS2*; D-Phe1, D-Trp; C-terminal amide

Target: T1, human SST-R2 (human, UniProt P30874)
T1 sequence (P30874 whole entry): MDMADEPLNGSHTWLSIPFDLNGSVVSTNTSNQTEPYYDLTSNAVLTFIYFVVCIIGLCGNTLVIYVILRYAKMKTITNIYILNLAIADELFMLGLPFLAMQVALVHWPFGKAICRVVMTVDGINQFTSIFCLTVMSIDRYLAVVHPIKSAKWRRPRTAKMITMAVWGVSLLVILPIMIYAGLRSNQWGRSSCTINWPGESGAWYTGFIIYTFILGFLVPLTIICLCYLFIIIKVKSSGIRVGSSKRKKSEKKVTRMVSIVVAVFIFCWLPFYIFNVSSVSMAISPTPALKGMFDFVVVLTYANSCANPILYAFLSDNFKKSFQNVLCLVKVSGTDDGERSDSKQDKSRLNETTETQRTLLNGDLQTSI
Experiment: competition, 125I-Tyr11-SRIF-14 radioligand

Row | Binder | IC50 [nM]
1 | B1 | 78
2 | B2 | 1.7
3 | B3 | 2.9
4 | B4 | 5.7
5 | B5 | 13.2
6 | B6 | 3
7 | B7 | 3.9
8 | B8 | 5.4

Target: T1, human SST-R2
Experiment: competition, SRIF-14 displacement

Row | Binder | IC50 [nM]
9 | B9 | 48
10 | B10 | 19
11 | B11 | 32
12 | B12 | 13
13 | B13 | 9
14 | B14 | 18
